Measurements published in patent EP3470428A1.

Legend:
[1] = biological target: human CD137-Fc chimeric protein (human) (UniProt Q07011); assay: SPR (Biacore T200); CD137-Fc captured by anti-human Fc
[2] = biological target: human PD-L1-Fc chimeric protein (human) (UniProt Q9NZQ7); assay: SPR (Biacore T200); PD-L1-Fc captured by anti-human Fc

Sequence of human CD137-Fc chimeric protein (human) (Q07011 24-186, change not shown): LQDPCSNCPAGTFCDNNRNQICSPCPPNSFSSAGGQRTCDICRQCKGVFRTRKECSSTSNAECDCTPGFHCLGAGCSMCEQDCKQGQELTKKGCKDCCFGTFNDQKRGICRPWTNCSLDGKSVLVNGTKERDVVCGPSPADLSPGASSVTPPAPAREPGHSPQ

B1: PRO1124: 38-02-A04 sc06 Full scDb-i/33_03_G02 sc01 scDb-o (bispecific antibody)
chain: DIQMTQSPSSLSASVGDRVTITCQASQSINDYLAWYQQKPGKAPKLLIYKASTLASGVPSRFSGSGSGTDFTLTISSLQPEDFATYYCQQGYIITDIDNVFGTGTKVTVLGGGGGSQVQLQESGPGLVKPSETLSLTCKASGFSFSNSYWICWVRQPPGKGLEWIGCTFVGSSDSTYYANWAKGRVTISKDSSKNQVSLKLSSVTAADTAVYFCARHPSDAVYGYANNLWGQGTLVTVSSGGGGSGGGGSGGGGSGGGGSLQMTQSPSSLSASVGDRVTITCQASQSINNVLAWYQQKPGKPPKLLIYRASTLASGVPSRFSGSGSGTDFTLTISSLQPEDFATYYCQSSYGNYGDFGTGTKVTVLGGGGGSQVQLQESGPGLVKPSETLSLTCKVSGFSFSSGYDMCWIRQPPGKGLEWIGCVVAGSVDITYYASWAKGRVTISVDSSKNQFSLKLSSVTAADTAVYYCARKDAYSDAFNLWGQGTLVTVSS
Binder B1 has a fold improvement of affinity against PRO885 [1] greater than 200 fold.

B2: PRO1126: 38-02-A04 sc01 scDb-i/33_03_G02 sc03 Full scDb-o (bispecific antibody)
chain: DFQLTQSPSSLSASVGDRVTITCQASQSINDYLAWYQQKPGKSPKLLIYKASTLASGVPSRFSGSGSGTDFTLTISSLQPEDFATYYCQQGYIITDIDNVFGTGTKVTVLGGGGGSQVQLQESGPGLVKPSETLSLTCKVSGFSFSNSYWICWIRQPPGKGLEWIGCTFVGSSDSTYYANWAKGRVTISVDSSKNQFSLKLSSVTAADTAVYYCARHPSDAVYGYANNLWGQGTLVTVSSGGGGSGGGGSGGGGSGGGGSIQMTQSPSSLSASVGDRVTITCQASQSINNVLAWYQQKPGKAPKLLIYRASTLASGVPSRFSGSGSGTDFTLTISSLQPEDFATYYCQSSYGNYGDFGTGTKVTVLGGGGGSQSQLQESGPGLVKPSETLSLTCKASGFSFSSGYDMCWVRQPPGKGLEWIACVVAGSVDITYYASWAKGRVTISKDSSKNQVSLKLSSVTAADTAVYFCARKDAYSDAFNLWGQGTLVTVSS
B2 was tested, and the fold improvement in affinity against the CDR graft (PRO885) [2] was 20 fold.
